Several values for one entry are separate records, joined by “and”; a condition that tells them apart may be missing. Equal entries are not always repeated.
Legend:
[1] = system: (2R,3S) 2,3,4-trihydroxybutanoyl-SHomoRChgQ-SL-DOX (3′)
[2] = system: (2R,3S) 2,3,4-trihydroxybutanoyl-ShRChgQ-SL-acid
[3] = system: (OH-Ac)SSSChgQ-SL-acid
[4] = system: (d)2,3-dihydroxypropionyl-3PAL-SSChgQSL-acid
[5] = system: (d)2,3-dihydroxypropionyl-3PALSSChgQ-SL-DOX (3′).AcOH
[6] = system: (d)2,3-dihydroxypropionyl-HomoRSSChgQSL-DOX (3′)
[7] = system: (d)2,3-dihydroxypropionyl-SHomoRChgQ-SL-DOX (3′)
[8] = system: (d)2,3-dihydroxypropionylSSChgQ-SL-DOX (3′)
[9] = system: (d)2,3-dihydroxypropionylSSSChgQ-SL-DOX (3′)
[10] = system: (l)2,3-dihydroxypropionyl-3PAL-SSChgQ-SL-acid
[11] = system: (l)2,3-dihydroxypropionyl-HomoRSSChgQ-SL-DOX (3′)
[12] = system: (l)2,3-dihydroxypropionyl-SHomoRChgQ-SL-DOX (3′)
[13] = system: (l)2,3-dihydroxypropionyl-SSChgQ-SL-DOX (3′)
[14] = system: (l)2,3-dihydroxypropionyl-SSChgQ-SL-acid
[15] = system: (l)2,3-dihydroxypropionyl-SSSChgQ-SL-acid
[16] = system: (l)2,3-dihydroxypropionylSSSChgQ-S(dL)-DOX (3′)
[17] = system: (l)2,3-dihydroxypropionylSSSChgQ-SL-DOX (3′)
[18] = system: 2(S)-2,3-dihydroxy-propionyl ShRChgQSL-acid
[19] = system: 2(S)2,3-dihydroxypropionyl-hRSSChgQ-SL-acid
[20] = system: 2,3-dihydroxypropionyl-GSSChgQ-SL-acid
[21] = system: 2,3-dihydroxypropionyl-HomoSSSChgQ-SL-DOX (3′)
[22] = system: 2,3-dihydroxypropionyl-SSSChgQ-SL-acid
[23] = system: 2,3-dihydroxypropionyl-ShRChgQ-SL-acid
[24] = system: 2,3-dihydroxypropionyl-ShRYQ-SL-acid
[25] = system: 2,3-dihydroxypropionyl-hSSSChgQ-SL-acid
[26] = system: 2-hydroxyacetyl-HomoRASChgQ-SL-DOX (3′)
[27] = system: 2-hydroxyacetyl-HomoRSSChgQ-SL-DOX (3′)
[28] = system: 2-hydroxyacetyl-HomoRSSYQ-SL-DOX (3′)
[29] = system: 2-hydroxyacetyl-HomoRSSYQ-SNle-DOX (3′)
[30] = system: 2-hydroxyacetyl-SHomoRChgQ-SL-DOX (3′)
[31] = system: 2-hydroxyacetyl-SSChgQ-SL-DOX (3′)
[32] = system: 2-hydroxyacetyl-SSChgQ-SL-acid
[33] = system: 2-hydroxyacetyl-SSSChgQ-SL-DOX (3′)
[34] = system: 2-hydroxyacetyl-hRASChgQ-SL-acid
[35] = system: 2-hydroxyacetyl-hRSSYQ-SL-acid
[36] = system: 2-hydroxyacetyl-hRSSYQ-SNle-acid
[37] = system: 2-hydroxyacetylhRYQ-SL-acid
[38] = system: Ac-ANKASYQ-SL-acid
[39] = system: Ac-ShRYQ-SNle-acid
[40] = system: Ac-hR(CHA)Q-SNle-acid
[41] = system: Ac-hRASChgQ-SL-acid
[42] = system: Ac-hRSSYQ-SNle-acid
[43] = system: AchRSSChgQ-SL-acid
[44] = system: PEG(1)-ShRChgQ-SL-acid
[45] = system: PEG(1)-ShRYQ-SL-acid
[46] = system: PEG(1)-hRSSChgQ-SL-acid
[47] = system: PEG(14)ShRYQ-SL-acid
[48] = system: PEG(15)-ShRYQ-SL-acid
[49] = system: PEG(16)-SHomoRYQ-SL-DOX (3′)
[50] = system: PEG(16)-ShRYQ-SL-acid
[51] = system: PEG(17)-ShRYQ-SL-acid
[52] = system: PEG(18)ShRYQ-SL-acid
[53] = system: PEG(19)ShRYQ-SL-acid
[54] = system: PEG(2)-3PAL-SSChgQ-SL-acid
[55] = system: PEG(2)-ASChgQ-SL-DOX (3′)
[56] = system: PEG(2)-HomoRSSChgQ-SL-DOX (3′)
[57] = system: PEG(2)-S-hRChgQ-SL-acid
[58] = system: PEG(2)-SHomoRChgQ-SL-DOX (3′)
[59] = system: PEG(2)-SHomoRYQ-SL-DOX (3′)
[60] = system: PEG(2)-SHomoRYQ-SL-DOX(3′)
[61] = system: PEG(2)-SSSChgQ-SL-DOX (3′)
[62] = system: PEG(2)-ShRYQ-SL-acid
[63] = system: PEG(2)-hRSSChgQ-SL-acid
[64] = system: PEG(2)SSChgQ-SL-DOX (3′)
[65] = system: PEG(2)SSSChgQ-SL-acid
[66] = system: PEG(4)-β-PAL-SSChgQ-SL-acid
[67] = system: PEG(6)-ASChgQ-SL-DOX (3′)

free prostate specific antigen (PSA)
Time to 50% Substrate Cleavage by York PSA [1]: 45 min
Time to 50% Substrate Cleavage by York PSA [2]: 90 min
Time to 50% Substrate Cleavage by York PSA [3]: 120 min
Time to 50% Substrate Cleavage by York PSA [4]: 80 min
Time to 50% Substrate Cleavage by York PSA (Min) [5]: 12 (PS)
Time to 50% Substrate Cleavage by York PSA [6]: 12 min
Time to 50% Substrate Cleavage by York PSA [7]: 65 min
Time to 50% Substrate Cleavage by York PSA [8]: 120 min
Time to 50% Substrate Cleavage by York PSA [9]: 55 min
Time to 50% Substrate Cleavage by York PSA [10]: 70 min
Time to 50% Substrate Cleavage by York PSA [11]: 12 min
Time to 50% Substrate Cleavage by York PSA [12]: 15 min
Time to 50% Substrate Cleavage by York PSA [13]: 25 min
Time to 50% Substrate Cleavage by York PSA [14]: 180 min
Time to 50% Substrate Cleavage by York PSA [15]: 80 min and 110 min
Time to 50% Substrate Cleavage by York PSA [16]: 180 min
Time to 50% Substrate Cleavage by York PSA [17]: 25 min
Time to 50% Substrate Cleavage by York PSA [18]: 35 min
Time to 50% Substrate Cleavage by York PSA [19]: 25 min
Time to 50% Substrate Cleavage by York PSA [20]: 160 min
Time to 50% Substrate Cleavage by York PSA [21]: 35 min
Time to 50% Substrate Cleavage by York PSA [22]: 120 min
Time to 50% Substrate Cleavage by York PSA [23]: 75 min
Time to 50% Substrate Cleavage by York PSA [24]: 35 min and 50 min
Time to 50% Substrate Cleavage by York PSA [25]: 160 min
Time to 50% Substrate Cleavage by York PSA [26]: 10 min
Time to 50% Substrate Cleavage by York PSA [27]: 12 min
Time to 50% Substrate Cleavage by York PSA (Min) [28]: 16 (PS)
Time to 50% Substrate Cleavage by York PSA [29]: 60 min
Time to 50% Substrate Cleavage by York PSA [30]: 15 min
Time to 50% Substrate Cleavage by York PSA [31]: 45 min
Time to 50% Substrate Cleavage by York PSA [32]: 180 min
Time to 50% Substrate Cleavage by York PSA [33]: 25 min
Time to 50% Substrate Cleavage by York PSA [34]: 70 min
Time to 50% Substrate Cleavage by York PSA (Min) [35]: 35 (PP)
Time to 50% Substrate Cleavage by York PSA [36]: 45 min
Time to 50% Substrate Cleavage by York PSA [37]: 105 min
Time to 50% Substrate Cleavage by York PSA [38]: 135 min and 220 min
Time to 50% Substrate Cleavage by York PSA (Min) [39]: 25 (PS)
Time to 50% Substrate Cleavage by York PSA (Min) [40]: 200 (PS)
Time to 50% Substrate Cleavage by York PSA [41]: 50 min
Time to 50% Substrate Cleavage by York PSA (Min) [42]: 25 (PS)
Time to 50% Substrate Cleavage by York PSA [43]: 120 min and 45 min
Time to 50% Substrate Cleavage by York PSA [44]: 120 min
Time to 50% Substrate Cleavage by York PSA [45]: 90 min
Time to 50% Substrate Cleavage by York PSA [46]: 30 min
Time to 50% Substrate Cleavage by York PSA [47]: 40 min
Time to 50% Substrate Cleavage by York PSA [48]: 40 min
Time to 50% Substrate Cleavage by York PSA [49]: 65 min
Time to 50% Substrate Cleavage by York PSA [50]: 40 min
Time to 50% Substrate Cleavage by York PSA [51]: 55 min
Time to 50% Substrate Cleavage by York PSA [52]: 40 min
Time to 50% Substrate Cleavage by York PSA [53]: 60 min
Time to 50% Substrate Cleavage by York PSA [54]: 80 min
Time to 50% Substrate Cleavage by York PSA [55]: 45 min
Time to 50% Substrate Cleavage by York PSA [56]: 11 min
Time to 50% Substrate Cleavage by York PSA [57]: 30 min
Time to 50% Substrate Cleavage by York PSA [58]: 25 min
Time to 50% Substrate Cleavage by York PSA [59]: 60 min
Time to 50% Substrate Cleavage by York PSA [60]: 35 min
Time to 50% Substrate Cleavage by York PSA [61]: 60 min
Time to 50% Substrate Cleavage by York PSA [62]: 35 min
Time to 50% Substrate Cleavage by York PSA [63]: 40 min
Time to 50% Substrate Cleavage by York PSA [64]: 90 min
Time to 50% Substrate Cleavage by York PSA [65]: 150 min
Time to 50% Substrate Cleavage by York PSA [66]: 60 min
Time to 50% Substrate Cleavage by York PSA [67]: 160 min
